Laboratory results reported in the supplement of paper PMC10201428.
± gives the standard deviation of the averaged measurements.

B1: library; a variant is named by its letters at N, in order (parent)
chain: AATGTTGTTGATGCAACCATAAAGTGATATTTAATAATTATTTATAATCAGCAACTTAACCACAAAACAACCATATATTGATATNTCACAAAACAACCATAANTTGATATTTTTGTGAATCGAGTATTTCAGCAAAACTACTGCAGTAAGAA

Key:
[1] = variants of: B1; assay: relative integration efficiency (T-LR orientation) vs wild-type transposon end (log2 (normalized fold change)); transposon end mutated: left end; higher = more efficient transposition; settings: with VchCAST RNA-guided transposition machinery (E. coli BL21(DE3) host, lacZ target)
Outline: (§1)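 In E. coli BL21(DE3), a T7-driven effector plasmid was paired with a pUC57 mini-transposon donor containing 1549 left-end or 1849 right-end barcoded transposon variants. Cells grew on plates with 0.1 mM IPTG at 37°C for 18 h. Relative integration efficiency was derived from Illumina reads of genomic integration junctions against input plasmids, as a log-transformed output/input barcode fold change normalised to reference barcodes.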

[2] = variants of: B1; assay: relative integration efficiency (T-RL orientation) vs wild-type transposon end (log2 (normalized fold change)); transposon end mutated: left end; higher = more efficient transposition; settings: with VchCAST RNA-guided transposition machinery (E. coli BL21(DE3) host, lacZ target)
Outline: as §1

Variant	relative integration efficiency (log2) [1]	relative integration efficiency (log2) [2]
AATGTTGTTGATGCACCCATAAATTGATATTGCATAATTATTTATAATCAGCAACTTAACCACAAAACACCCATAAATTGATATTGCACAAAACAACCATATATTGATATCTCTGTGAATCGAGTATTTCAGCAAAACTACTGCAGTAAGAA [TA A16C G24T T32G A33C A70C T76A T86G A102T T111C T113C]	-1.2 ± 0.65	-0.838 ± 0.29
AATGTTGTTGATGCAACCATAAAGTGATATTTAATAATTATTTATAATCAGCAACTTAACCACAAAACAACCATATATTGATATCTCACAAAACAACCAGCCTTTGATATTTTTGTGAATCGAGTATTTCAGCAAAACTACTGCAGTAAGAA [CT T100G A101C A102C]	-1.43 ± 0.25	-2.43 ± 0.88
AATGTTGTTGATGCAACCATAAAGTGATATTTAAGAATTATTTATAATCAGCAACTTAACCACAAAACAACCATATATTGATATCTCACAAAACAACCATAAGTTGATATTTTTGTGAATCGAGTATTTCAGCAAAACTACTGCAGTAAGAA [CG T35G]	0.136 ± 0.33	0.163 ± 0.11
AATGTTGTTGATGCAACCATAAAGTGATATTTAATAATTATTTATAATCAGCAACGTAACCACAAAACAACCATATATTGATATCTCACAAAACAACCATAAGTTGATATTTTTGTGAATCGAGTATTTCAGCAAAACTACTGCAGTAAGAA [CG T56G]	-0.0431 ± 0.26	-0.112 ± 0.12
AATGTTGTTGATGCAACCATAAAGTGATATTTAATAATTATTTATAATCAGCAACTTAACCACAAAACAACCATATATTGATATCTCACAAAACACAACTAAGTTGATATTTTTGTGAATCGAGTATTTCAGCAAAACTACTGCAGTAAGAA [CG A96C C97A C98A A99C]	-1.79 ± 0.72	-2.25 ± 0.85
AATGTTGTTGATGCAACCATAAAGTTATATTTAATAATTATTTATAATCAGCAACTTAACCACAAAACAACCATATATTGATATCTCACAAAACAACCATAAGTTGATATTTTTGTGAATCGAGTATTTCAGCAAAACTACTGCAGTAAGAA [CG G26T]	-0.577 ± 1.1	-0.329 ± 0.41
AATGTTGTTGATGCAACCATAAAGTGATATTTAATAATTATTTATAATCAGCAACTTAACCACAAAACAACCATATATTGATATCTCACAAAACAACCATTTCATGATATTTTTGTGAATCGAGTATTTCAGCAAAACTACTGCAGTAAGAA [CC A101T A102T T104A]	-0.0376 ± 0.63	-0.0794 ± 0.32
AATGTTGTTGATGCAACCATAAAGTGATATTTAATAATTATTTATAATCAGCAACTTAACCACAAAACAACCATATATTGATATCTCACAAAACAACGATAAGTTGATATTTTTGTGAATCGAGTATTTCAGCAAAACTACTGCAGTAAGAA [CG C98G]	-0.135 ± 0.48	-0.464 ± 0.23
AATGTTGTTGATGCAACCATAAAGTGATATTGAATAATTATTTATAATCAGCAACTTAACCACAAAACAACCATATATTGATATCGCACAAAACAACCATAAGTTGATATTGTTGTGAATCGAGTATTTCAGCAAAACTACTGCAGTAAGAA [CG T32G T86G T112G]	-0.809 ± 0.9	-0.686 ± 0.19
ACGGTTGTTGATGCAACCATAAAGTGATATTTAATAATTATTTATAATCAGCAACTTAACCACAAAACAACCATATATTGATATCTCACAAAACAACCATAAGTTGATATTTTTGTGAATCGAGTATTTCAGCAAAACTACTGCAGTAAGAA [CG A2C T3G]	0.286 ± 0.049	-0.0688 ± 0.0099
AATGTTGCTGATGCAACCATAAAGTGATATTTAATAATTATTTATAATCAGCAACTTAACCACAAAACAACCATATATTGATATCTCACAAAACAACCATAAGTTGATATTTTTGTGAATCGAGTATTTCAGCAAAACTACTGCAGTAAGAA [CG T8C]	-0.996 ± 0.69	-1.39 ± 0.56
AATGTTGTTGATGCACCCATAAATTGATATTGCATAATTATTTATAATCAGCAACTTAACCACAAAACAACCATAAAGTGATATTTAACAAAACACCCATAAATTGATATTGCTGTGAATCGAGTATTTCAGCAAAACTACTGCAGTAAGAA [TA A16C G24T T32G A33C T76A T78G C87A A96C T112G T113C]	-0.523 ± 0.65	-0.344 ± 0.18
AATGTTGTTGATGCAACCATCAAGTGATATTTAATAATTATTTATAATCAGCAACTTAACCACAAAACAACCATCTATTGATATCTCACAAAACAACCATCAGTTGATATTTTTGTGAATCGAGTATTTCAGCAAAACTACTGCAGTAAGAA [CG A21C A75C A101C]	-3.75 ± 1.3	-3.08 ± 0.72
AATGTTGTTGATGCAACCATAAAGTGATATTTAATAATTATTTATAATCAGCAACTTAACCACAAAACAACCATATATTGATATCTCACAAAACAAGGTAAAGTTGATATTTTTGTGAATCGAGTATTTCAGCAAAACTACTGCAGTAAGAA [CG C97G C98G A99T T100A]	-0.482 ± 0.85	-1.36 ± 0.79
AATGTTGTTGATGCAACCATAAAGTGATATTATATAATTATTTATAATCAGCAACTTAACCACAAAACAACCATATATTGATATCTCACAAAACAACCATAAGTTGATATTTTTGTGAATCGAGTATTTCAGCAAAACTACTGCAGTAAGAA [CG T32A A33T]	0.105 ± 0.075	-0.145 ± 0.16
AATGTTGTTCTTGCAACCATAAAGTGATATTTAATAATTATTTATAATCAGCAACTTAACCACAAAACAACCATATATTGATATCTCACAAAACAACCATAAGTTGATATTTTTGTGAATCGAGTATTTCAGCAAAACTACTGCAGTAAGAA [CG G10C A11T]	< -10	0.833 ± 0.19
AATGTTGTTGATGCAACCATAAAGTGATATTTAATAATTATTTATAATCAGCAACTTAACCACAAAACAACCATATATTGATATCTCACAAAACAACCATAAGTAGATATTTTTGTGAATCGAGTATTTCAGCAAAACTACTGCAGTAAGAA [CG T105A]	-1.22 ± 0.29	-0.835 ± 0.58
AATGTTGTTGATGCAACCATAAAATGATAATTAATAATTATTTATAATCAGCAACTTAACCACAAAACAACCATATATTGATATCTCACAAAACACCCATAAATTGATATTGCTGTGAATCGAGTATTTCAGCAAAACTACTGCAGTAAGAA [CA G24A T30A A96C T112G T113C]	0.199 ± 0.4	0.0766 ± 0.11
AATGTTGTTCATGCAACCATAAAGTGATATTTAATAATTATTTATAATCAGCAACTTAACCACAAAACAACCATATATTGATATCTCACAAAACAACCATAAGTTGATATTTTTGTGAATCGAGTATTTCAGCAAAACTACTGCAGTAAGAA [CG G10C]	-1.66 ± 0.034	-0.357 ± 0.19
